In article PMC3568127 (2013):

Legend:
[1] = target: T1, NRP1 (neuropilin 1) expressed from an adenovirus on DU145 cells (UniProt O14786 22-923); experiment: competition with bt-VEGF-A165 on DU145 cells
[2] = target: T1, NRP1 (neuropilin 1) expressed from an …; experiment: competition with bt-VEGF-A165 on DU145 cells, +BSA

T1 sequence (O14786 22-923): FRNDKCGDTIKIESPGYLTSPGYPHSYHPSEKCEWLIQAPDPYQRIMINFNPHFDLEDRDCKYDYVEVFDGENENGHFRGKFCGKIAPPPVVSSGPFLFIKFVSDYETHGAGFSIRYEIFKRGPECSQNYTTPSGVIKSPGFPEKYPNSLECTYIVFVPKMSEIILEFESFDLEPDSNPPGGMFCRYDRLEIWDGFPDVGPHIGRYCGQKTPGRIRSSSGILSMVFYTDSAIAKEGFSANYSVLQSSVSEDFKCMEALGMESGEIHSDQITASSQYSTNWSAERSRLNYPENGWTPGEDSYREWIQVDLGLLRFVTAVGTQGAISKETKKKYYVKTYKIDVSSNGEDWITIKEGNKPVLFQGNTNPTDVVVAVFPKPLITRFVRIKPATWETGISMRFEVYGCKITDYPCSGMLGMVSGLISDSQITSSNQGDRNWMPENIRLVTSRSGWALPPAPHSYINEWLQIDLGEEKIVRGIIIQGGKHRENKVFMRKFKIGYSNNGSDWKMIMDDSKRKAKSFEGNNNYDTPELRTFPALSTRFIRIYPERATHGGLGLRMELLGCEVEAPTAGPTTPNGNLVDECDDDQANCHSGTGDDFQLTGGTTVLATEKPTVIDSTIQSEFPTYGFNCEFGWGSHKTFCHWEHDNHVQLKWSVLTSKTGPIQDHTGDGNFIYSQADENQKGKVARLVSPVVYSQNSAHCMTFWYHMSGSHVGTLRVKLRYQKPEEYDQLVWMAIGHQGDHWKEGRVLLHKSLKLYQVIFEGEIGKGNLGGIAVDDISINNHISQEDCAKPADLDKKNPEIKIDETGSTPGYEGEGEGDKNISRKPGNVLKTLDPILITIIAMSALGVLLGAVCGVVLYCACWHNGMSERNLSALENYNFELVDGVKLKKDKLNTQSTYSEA

B1: His6-tagged VEGF-A165-HBD (heparin binding domain of human vascular endothelial growth factor VEGF-A165) (domain or fragment)
chain: PCGPCSERRKHLFVQDPQTCKCSCKNTDSRCKARQLELNERTCRCDKPRR
IC50 [1]: 161 nM
IC50 [2]: 152 nM

B2: VEGF-A165-HBD with the His6-tag removed (domain or fragment)
chain: PCGPCSERRKHLFVQDPQTCKCSCKNTDSRCKARQLELNERTCRCDKPRR
IC50 [1]: 107 nM
IC50 [2]: 229 nM

B3: VEGF-A165 (R&D Systems), unlabelled (ligand)
chain: APMAEGGGQNHHEVVKFMDVYQRSYCHPIETLVDIFQEYPDEIEYIFKPSCVPLMRCGGCCNDEGLECVPTEESNITMQIMRIKPHQGQHIGEMSFLQHNKCECRPKKDRARQENPCGPCSERRKHLFVQDPQTCKCSCKNTDSRCKARQLELNERTCRCDKPRR
modifications: Disulfide-linked homodimer. Mature VEGF165 (equals P15692-4 residues 27-191, 165 aa) is built from the 395-aa displayed form by removing exon 6a, with K to N at the splice junction. Limits follow the standard mature VEGF165; the paper does not print them.
IC50 [1]: 0.8 nM
